The data set deals with the molecule itself. Briefly: cryo-EM structure; single-particle cryo-EM with bumetanide; low [Cl-] buffer: 20 mM HEPES pH 7.4, 50 mM Na2SO4, 25 mM K2SO4, 5 mM NaCl, 0.06% digitonin, bumetanide to 500 uM.

Residue numbers refer to the chain shown, from its start. Numbers in names are those of the source.

One may read the stoichiometry N as a count of units in the complex or per binding partner.

B1: NKCC1iii (full-length human NKCC1 with K289N, A492E and L671C mutations) (natural protein, UniProt P55011 1-1212, looked up)
chain: MEPRPTAPSSGAPGLAGVGETPSAAALAAARVELPGTAVPSVPEDAAPASRDGGGVRDEGPAAAGDGLGRPLGPTPSQSRFQVDLVSENAGRAAAAAAAAAAAAAAAGAGAGAKQTPADGEASGESEPAKGSEEAKGRFRVNFVDPAASSSAEDSLSDAAGVGVDGPNVSFQNGGDTVLSEGSSLHSGGGGGSGHHQHYYYDTHTNTYYLRTFGHNTMDAVPRIDHYRHTAAQLGEKLLRPSLAELHDELEKEPFEDGFANGEESTPTRDAVVTYTAESKGVVKFGWINGVLVRCMLNIWGVMLFIRLSWIVGQAGIGLSVLVIMMATVVTTITGLSTSAIATNGFVRGGGAYYLISRSLGPEFGGAIGLIFAFANAVAVAMYVVGFAETVVELLKEHSILMIDEINDIRIIGAITVVILLGISVAGMEWEAKAQIVLLVILLLAIGDFVIGTFIPLESKKPKGFFGYKSEIFNENFGPDFREEETFFSVFEIFFPAATGILAGANISGDLADPQSAIPKGTLLAILITTLVYVGIAVSVGSCVVRDATGNVNDTIVTELTNCTSAACKLNFDFSSCESSPCSYGLMNNFQVMSMVSGFTPLISAGIFSATLSSALASLVSAPKIFQALCKDNIYPAFQMFAKGYGKNNEPLRGYILTFLIALGFILIAECNVIAPIISNFFLASYALINFSVFHASLAKSPGWRPAFKYYNMWISLLGAILCCIVMFVINWWAALLTYVIVLGLYIYVTYKKPDVNWGSSTQALTYLNALQHSIRLSGVEDHVKNFRPQCLVMTGAPNSRPALLHLVHDFTKNVGLMICGHVHMGPRRQAMKEMSIDQAKYQRWLIKNKMKAFYAPVHADDLREGAQYLMQAAGLGRMKPNTLVLGFKKDWLQADMRDVDMYINLFHDAFDIQYGVVVIRLKEGLDISHLQGQEELLSSQEKSPGTKDVVVSVEYSKKSDLDTSKPLSEKPITHKVEEEDGKTATQPLLKKESKGPIVPLNVADQKLLEASTQFQKKQGKNTIDVWWLFDDGGLTLLIPYLLTTKKKWKDCKIRVFIGGKINRIDHDRRAMATLLSKFRIDFSDIMVLGDINTKPKKENIIAFEEIIEPYRLHEDDKEQDIADKMKEDEPWRITDNELELYKTKTYRQIRLNELLKEHSSTANIIVMSLPVARKGAVSSALYMAWLEALSKDLPPILLVRGNHQSVLTFYS
notes: Human Na-K-2Cl cotransporter NKCC1, full length, with K289N, A492E and L671C; MBP followed by a TEV site was fused immediately before the N-terminus and removed with TEV protease before size exclusion and cryo-EM; Residues 927-1021 are not defined in the model; also called Lys289Asn/Ala492Glu/Leu671Cys NKCC1 transporter; NKCCiii; source: HEK293S GnTI-/- cells (BacMam system), purified (amylose …)
As to B1, the “stoichiometry N” value is 2.

B2: NKCC1ii (full-length human NKCC1 with K289N and A492E mutations) (natural protein, UniProt P55011 1-1212, looked up)
chain: B1 chain with C671L
notes: Human Na-K-2Cl cotransporter NKCC1, full length, with K289N and A492E; MBP followed by a TEV site was fused immediately before the N-terminus and removed with TEV protease before size exclusion and cryo-EM; also called NKCCii; source: HEK293S GnTI-/- cells (BacMam system), purified (amylose resin, TEV protease, Superose 6) in digitonin; not shown: MBP, N-terminal, cleaved
As to B2, the “stoichiometry N” value turned out to be 2.

(Values after publication PMC9117670, “Structural basis for inhibition of the Cation-chloride cotransporter NKCC1 by the diuretic drug bumetanide” (Nature Communications, 2022).)
